The values that follow come from patent US20260109758A1 (BIOSION, published 2026).

Assay [1] concerns the target T1, recombinant human TSLP-his (human, UniProt Q969D9 29-159, biotin-labeled in the ELISAs).
T1 construct: In-house made; not shown: His tag at the C-terminus
Briefly: capture ELISA: antibody captured on anti-human IgG Fc F(ab')2, biotin human TSLP-his, SA-HRP. As for the experimental part: (§1) Briefly, 96-well micro plates were coated with 100 μL 2 μg/mL AffiniPure F(ab′)₂ Fragment Goat Anti-Human IgG, Fey fragment specific (Jackson Immuno Research, Cat #109-006-008) in PBS and incubated overnight at 4° C. Plates were washed 4 times with wash buffer (PBS+0.05% Tween-20, PBST) and then blocked with 200 μL/well blocking buffer (5% w/v non-fatty milk in PBST) for 2 hours at 37° C. […] After the final wash, the plates were incubated with 100 μL/well TMB (Innoreagents). The reaction was stopped 15 minutes later at room temperature with 50 μL/well 1M H₂SO₄, and the absorbance of each well was read on a microplate reader using dual wavelength mode with 450 nm for TMB and 630 nm as the reference wavelength. The OD (450-630) values were plotted against antibody concentration. Data was analyzed using Graphpad Prism and EC₅₀ values were reported.
In general terms: In an ELISA, binding on a coated surface is turned into a signal by an enzyme label.

For assay [2], the target named is T1, recombinant human TSLP-his. Described as above. On the procedure:
as §1
The source holds these as a separate data set.

In assay [3] the target is T1, recombinant human TSLP-his. Briefly: SPR Biacore; TSLP-his amine-coupled to CM5 chip, antibody as analyte; 1:1 Langmuir fit. On the procedure:
Un-reacted moieties on the biosensor surface were blocked with ethanolamine. Then, serially diluted purified bispecific antibodies and the controls (2-fold serial dilution in HBS-EP⁺ buffer starting at 100 nM) were respectively flowed onto the chip at a flow rate of 30 μL/min. The antigen-antibody association kinetics was followed for 4 minutes and the dissociation kinetics was followed for 13 minutes.

One may read the EC50 as the concentration that produces a half-maximal response. The term Kd denotes the free concentration of one partner at which half of the binding sites on the other are occupied at equilibrium, for simple one-to-one binding. As usually defined, the koff is the first-order rate constant of dissociation. In general, kon refers to a measure of how fast the partners come together.

Read-outs that look alike come from different tables or passages of the source. Where only a bound is given, the exact number is not on record here.

B1: hu1C5F12E9-V8(IgG1) (antibody)
heavy: QVQLVQSGAEVKKPGASVKVSCKASGYTFTTYWMHWVRQAPGQGLEWMGVIDPSDSDTTYNQKFKGRVTMTRDTSTSTVYMELSSLRSEDTAVYYCTRSLDGYYDYWGQGTLVTVSSASTKGPSVFPLAPSSKSTSGGTAALGCLVKDYFPEPVTVSWNSGALTSGVHTFPAVLQSSGLYSLSSVVTVPSSSLGTQTYICNVNHKPSNTKVDKKVEPKSCDKTHTCPPCPAPEAQGGPSVFLFPPKPKDTLYITREPEVTCVVVDVSHEDPEVKFNWYVDGVEVHNAKTKPREEQYNSTYRVVSVLTVLHQDWLNGKEYKCQVSNKALPAPIEKTISKAKGQPREPQVYTLPPSRDELTKNQVSLTCLVKGFYPSDIAVEWESNGQPENNYKTTPPVLDSDGSFFLYSKLTVDKSRWQQGNVFSCSVMHEALHNHYTQKSLSLSPG
light: DIQMTQSPSSLSASVGDRVTITCRPTENIYSYLAWYQQKPGKAPKLLIYFARTLAEGVPSRFSGSGSGTDFTLTISSLQPEDFATYYCQHHYGTPWTFGGGTKVEIKRTVAAPSVFIFPPSDEQLKSGTASVVCLLNNFYPREAKVQWKVDNALQSGNSQESVTEQDSKDSTYSLSSTLTLSKADYEKHKVYACEVTHQGLSSPVTKSFNRGEC
notes: Monospecific control, full-length IgG1; also called anti-TSLP hu1C5F12E9-V8
B1: the EC50 in assay [1] is 0.0487 nM. In addition, the EC50 in assay [2] came out at 0.0511 nM. In assay [3], the Kd is under 0.0157 nM, the koff is under 1e-05 s⁻¹ and the kon is 636000 M⁻¹ s⁻¹.
